Laboratory results taken from PMC10580588.

Target: FLAG-tagged full-length senataxin (SETX) (human) (UniProt Q7Z333)
Assay: co-IP; SETX immunoprecipitated, the IP'd material treated with or without RNase A; bands measured by densitometry; IgG only IP as negative control

Chain of UniProt Q7Z333 (Q7Z333 whole entry): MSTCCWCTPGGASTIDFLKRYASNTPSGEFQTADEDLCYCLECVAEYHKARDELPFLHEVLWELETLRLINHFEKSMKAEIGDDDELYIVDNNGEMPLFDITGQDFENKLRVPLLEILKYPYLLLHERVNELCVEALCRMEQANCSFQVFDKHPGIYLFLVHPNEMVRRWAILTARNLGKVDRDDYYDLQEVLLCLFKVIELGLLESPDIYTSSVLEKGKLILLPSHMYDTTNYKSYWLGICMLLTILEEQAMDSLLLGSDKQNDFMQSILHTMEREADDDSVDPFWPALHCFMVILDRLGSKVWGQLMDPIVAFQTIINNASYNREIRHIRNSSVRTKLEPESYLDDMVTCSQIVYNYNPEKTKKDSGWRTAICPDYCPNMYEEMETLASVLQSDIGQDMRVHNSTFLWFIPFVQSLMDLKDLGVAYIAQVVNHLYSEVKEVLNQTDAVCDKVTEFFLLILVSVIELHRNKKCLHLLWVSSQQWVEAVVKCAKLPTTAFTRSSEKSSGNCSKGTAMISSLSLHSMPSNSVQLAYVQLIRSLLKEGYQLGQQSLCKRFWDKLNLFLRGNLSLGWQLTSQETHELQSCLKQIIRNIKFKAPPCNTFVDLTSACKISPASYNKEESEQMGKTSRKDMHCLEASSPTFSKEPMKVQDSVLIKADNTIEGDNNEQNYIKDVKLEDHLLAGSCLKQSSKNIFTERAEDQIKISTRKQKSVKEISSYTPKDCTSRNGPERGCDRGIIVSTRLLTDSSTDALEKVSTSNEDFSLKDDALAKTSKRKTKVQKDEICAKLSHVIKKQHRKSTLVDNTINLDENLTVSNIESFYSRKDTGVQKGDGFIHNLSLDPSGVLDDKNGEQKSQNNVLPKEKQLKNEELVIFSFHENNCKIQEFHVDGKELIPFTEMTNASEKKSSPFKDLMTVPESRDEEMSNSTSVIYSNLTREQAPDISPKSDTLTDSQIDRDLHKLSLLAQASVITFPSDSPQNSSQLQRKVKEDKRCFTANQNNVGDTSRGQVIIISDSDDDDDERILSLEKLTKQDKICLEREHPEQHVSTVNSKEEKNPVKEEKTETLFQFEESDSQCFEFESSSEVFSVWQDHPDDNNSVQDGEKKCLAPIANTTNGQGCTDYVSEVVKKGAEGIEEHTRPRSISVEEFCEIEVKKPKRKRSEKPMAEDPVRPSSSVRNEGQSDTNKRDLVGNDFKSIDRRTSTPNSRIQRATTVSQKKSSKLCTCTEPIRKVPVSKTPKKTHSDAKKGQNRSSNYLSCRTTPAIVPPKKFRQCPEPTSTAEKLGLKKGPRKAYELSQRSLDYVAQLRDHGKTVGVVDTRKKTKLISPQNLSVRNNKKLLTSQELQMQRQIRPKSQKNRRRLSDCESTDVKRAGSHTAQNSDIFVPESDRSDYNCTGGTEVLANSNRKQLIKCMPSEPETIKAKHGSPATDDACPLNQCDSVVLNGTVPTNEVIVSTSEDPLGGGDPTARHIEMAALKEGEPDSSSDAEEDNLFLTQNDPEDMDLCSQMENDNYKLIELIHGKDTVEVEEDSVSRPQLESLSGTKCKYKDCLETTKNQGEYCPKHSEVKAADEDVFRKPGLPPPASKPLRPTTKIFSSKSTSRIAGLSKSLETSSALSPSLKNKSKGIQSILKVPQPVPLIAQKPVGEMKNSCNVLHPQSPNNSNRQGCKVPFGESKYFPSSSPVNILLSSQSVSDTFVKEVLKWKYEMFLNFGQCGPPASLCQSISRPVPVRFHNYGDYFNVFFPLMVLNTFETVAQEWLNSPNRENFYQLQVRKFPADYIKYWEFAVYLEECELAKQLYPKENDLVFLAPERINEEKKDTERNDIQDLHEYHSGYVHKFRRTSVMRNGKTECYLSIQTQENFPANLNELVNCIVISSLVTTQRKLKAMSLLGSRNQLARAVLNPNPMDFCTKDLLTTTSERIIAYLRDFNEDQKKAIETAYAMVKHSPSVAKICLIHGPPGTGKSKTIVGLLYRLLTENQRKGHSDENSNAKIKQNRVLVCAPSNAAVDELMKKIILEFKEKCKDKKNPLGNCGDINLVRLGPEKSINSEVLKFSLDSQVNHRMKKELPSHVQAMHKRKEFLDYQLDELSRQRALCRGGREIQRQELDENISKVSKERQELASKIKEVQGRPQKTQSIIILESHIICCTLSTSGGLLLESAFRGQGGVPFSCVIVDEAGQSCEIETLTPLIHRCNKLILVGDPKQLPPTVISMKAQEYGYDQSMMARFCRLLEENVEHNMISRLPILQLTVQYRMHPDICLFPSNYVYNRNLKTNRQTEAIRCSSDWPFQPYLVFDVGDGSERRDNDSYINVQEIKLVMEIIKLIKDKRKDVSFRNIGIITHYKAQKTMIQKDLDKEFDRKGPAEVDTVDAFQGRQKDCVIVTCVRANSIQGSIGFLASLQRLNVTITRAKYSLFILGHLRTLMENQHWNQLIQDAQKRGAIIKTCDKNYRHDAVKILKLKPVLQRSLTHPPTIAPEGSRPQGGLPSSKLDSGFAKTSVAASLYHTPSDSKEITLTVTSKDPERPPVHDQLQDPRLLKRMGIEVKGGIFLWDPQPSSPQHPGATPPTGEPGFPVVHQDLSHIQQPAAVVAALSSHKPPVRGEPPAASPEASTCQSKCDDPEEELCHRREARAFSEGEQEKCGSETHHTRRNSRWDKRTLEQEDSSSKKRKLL

Substance: GFP-GR30 (peptide)
- percent reduction of the co-IP band upon RNase A treatment: 32%
